Assay results reported in patent US20030203372A1, “Analysis method” (priority 2000, published 2003).

Assays:
[1] = tested on: human macrophages; experiment: Custom gene array, macrophages with no cytokines, IL-10 or LPS + IFN, in normoxia and hypoxia; assay type: cell-based; conditions: for mRNA EXPRESSION (experimental condition) #1: #1 no cytokines/normoxia; for mRNA EXPRESSION (experimental condition) #2: #2 no cytokines/hypoxia; for mRNA EXPRESSION (experimental condition) #3: #3 IL-10/normoxia; for mRNA EXPRESSION (experimental condition) #4: #4 IL-10/hypoxia; for mRNA EXPRESSION (experimental condition) #5: #5 LPS/IFN/normoxia; for mRNA EXPRESSION (experimental condition) #6: #6 LPS/IFN/hypoxia
Protocol: Macrophages were derived and cultured as described elsewhere in the specification. A total of 6 experimental conditions were analysed, as shown below. Where cells were treated with cytokines or hypoxia (0.1% oxygen), this was for 6 hr. Lipopolysaccharide (LPS) (from E.coli 026:B6; Sigma), gamma Interferon (IFN) and Interleukin-10 (IL-10) were all used at a final concentration of 100 ng/ml. The effect of gamma Interferon and Lipopolysaccharide is to activate macrophages, with a Th1 biased phenotype, as found in many inflammatory conditions. Interleukin-10 is a Th2 cytokine and de-activates macrophages, and suppresses their effector functions.

[2] = tested on: primary human cell cultures (11 cell types); experiment: Custom gene array, 11 human cell types in normoxia or hypoxia for 6 hr and 18 hr; assay type: cell-based; conditions: for mRNA expression level, #1 HY 6 hr: cell type #1, hypoxia 6 hr; for mRNA expression level, #1 HY 18 hr: cell type #1, hypoxia 18 hr; for mRNA expression level, #1 NO: cell type #1, normoxia; for mRNA expression level, #2 HY 6 hr: cell type #2, hypoxia 6 hr; for mRNA expression level, #2 HY 18 hr: cell type #2, hypoxia 18 hr; for mRNA expression level, #2 NO: cell type #2, normoxia; for mRNA expression level, #3 HY 6 hr: cell type #3, hypoxia 6 hr; for mRNA expression level, #3 HY 18 hr: cell type #3, hypoxia 18 hr; for mRNA expression level, #3 NO: cell type #3, normoxia; for mRNA expression level, #4 HY 6 hr: cell type #4, hypoxia 6 hr; for mRNA expression level, #4 HY 18 hr: cell type #4, hypoxia 18 hr; for mRNA expression level, #4 NO: cell type #4, normoxia; for mRNA expression level, #5 HY 6 hr: cell type #5, hypoxia 6 hr; for mRNA expression level, #5 NO: cell type #5, normoxia; for mRNA expression level, #6 HY 6 hr: cell type #6, hypoxia 6 hr; for #6 HY 18 hr (mRNA expression level): cell type #6, hypoxia 18 hr; for mRNA expression level, #6 NO: cell type #6, normoxia; for #7 HY 6 hr (mRNA expression level): cell type #7, hypoxia 6 hr; for #7 HY 18 hr (mRNA expression level): cell type #7, hypoxia 18 hr; for #7 NO (mRNA expression level): cell type #7, normoxia; for #8 HY 6 hr (mRNA expression level): cell type #8, hypoxia 6 hr; for #8 HY 18 hr (mRNA expression level): cell type #8, hypoxia 18 hr; for #8 NO (mRNA expression level): cell type #8, normoxia; for #9 HY 6 hr (mRNA expression level): cell type #9, hypoxia 6 hr; for #9 HY 18 hr (mRNA expression level): cell type #9, hypoxia 18 hr; for #9 NO (mRNA expression level): cell type #9, normoxia; for #10 HY 6 hr (mRNA expression level): cell type #10, hypoxia 6 hr; for #10 HY 18 hr (mRNA expression level): cell type #10, hypoxia 18 hr; for #10 NO (mRNA expression level): cell type #10, normoxia; for #11 HY 6 hr (mRNA expression level): cell type #11, hypoxia 6 hr; for #11 HY 18 hr (mRNA expression level): cell type #11, hypoxia 18 hr; for #11 NO (mRNA expression level): cell type #11, normoxia; for HIGHEST FOLD CHANGE IN HYPOXIA (hr hypoxia + cell type): hypoxia/normoxia induction ratio;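 on mRNA expression level, #1 HY 18 hr: cell type #1 is adipocyte from subcutaneous adult adipose tissue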;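 on mRNA expression level, #1 HY 6 hr: cell type #1 is adipocyte from subcutaneous adult adipose tissue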;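 on mRNA expression level, #1 NO: cell type #1 is adipocyte from subcutaneous adult adipose tissue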;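 on mRNA expression level, #2 HY 18 hr: cell type #2 is fetal cardiomyocyte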;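 on mRNA expression level, #2 HY 6 hr: cell type #2 is fetal cardiomyocyte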;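 on mRNA expression level, #2 NO: cell type #2 is fetal cardiomyocyte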;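 on mRNA expression level, #3 HY 6 hr: cell type #3 is human umbilical vein endothelial cells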;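 on mRNA expression level, #3 NO: cell type #3 is human umbilical vein endothelial cells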;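 on mRNA expression level, #4 HY 18 hr: cell type #4 is adult dermal fibroblast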;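 on mRNA expression level, #4 HY 6 hr: cell type #4 is adult dermal fibroblast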;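 on mRNA expression level, #4 NO: cell type #4 is adult dermal fibroblast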;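 on mRNA expression level, #5 HY 6 hr: cell type #5 is adult hepatocyte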;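 on mRNA expression level, #5 NO: cell type #5 is adult hepatocyte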;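 on mRNA expression level, #6 HY 6 hr: cell type #6 is blood-derived macrophage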;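 on mRNA expression level, #6 NO: cell type #6 is blood-derived macrophage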
Outline: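 Eleven primary, unmodified human cell types (one non-primary neuronal type) held in normoxia or hypoxia for 6 hr and 18 hr. RNA hybridised to duplicate or triplicate custom arrays, normalised per array to reference genes. Expression given relative to each gene's median across all conditions.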

[3] = Table 15, referenced to the median value of that gene throughout all 6 conditions
[4] = Table 16, referenced to median of the gene over 6 conditions

B1: p1E7 (nucleic acid, listed as Homo Sapiens)
DNA: GCTTGAGATCTCCAGCCTTACCGCGGCTCGAAATGGCCCCAACTGCTCCTGCACCACTGGTGTCTCCTGCANCTGCACCGGCTCCTGCAAGTGCAAAGAGTGCAAATGACCTCCTGCAAGAAGAGCTGCTGNNCTGCTGCCCCGTGGTGTGCAAGTGTGCCACGGTGTGTCTGCAAAGGGACGTTGGAGAACTGCAGCTGCTGTNCTGATGTGGGAACAAGCTCTTCTCCCAGATGTTAATAGAACAAGCTGCACAACCTGGGATTTTTTTTCAATACGATACTTGAGCCATTTTCTGCATTTCTTTTTATTGTTAAATATGTGAGTGACAATAAAACAATTTTGACTTTGAATCTTAAAAA
modifications: EST array clone; misc_feature 72, 132, 133, 205: n = A,T,C or G
mRNA EXPRESSION (experimental condition) #1 [1, 3]: 0.49
mRNA EXPRESSION (experimental condition) #2 [1, 3]: 1.26
mRNA EXPRESSION (experimental condition) #3 [1, 3]: 0.70
mRNA EXPRESSION (experimental condition) #4 [1, 3]: 1.11
mRNA EXPRESSION (experimental condition) #5 [1, 3]: 1.32
mRNA EXPRESSION (experimental condition) #6 [1, 3]: 2.89
mRNA expression level, #1 HY 6 hr [2]: 1.29
mRNA expression level, #1 HY 18 hr [2]: 1.63
mRNA expression level, #1 NO [2]: 1.20
mRNA expression level, #2 HY 6 hr [2]: 0.18
mRNA expression level, #2 HY 18 hr [2]: 0.22
mRNA expression level, #2 NO [2]: 0.12
mRNA expression level, #3 HY 6 hr [2]: 1.03
mRNA expression level, #3 HY 18 hr [2]: 0.71
mRNA expression level, #3 NO [2]: 1.40
mRNA expression level, #4 HY 6 hr [2]: 2.17
mRNA expression level, #4 HY 18 hr [2]: 2.85
mRNA expression level, #4 NO [2]: 2.36
mRNA expression level, #5 HY 6 hr [2]: 6.75
mRNA expression level, #5 NO [2]: 4.89
mRNA expression level, #6 HY 6 hr [2]: 1.07
#6 HY 18 hr (mRNA expression level) [2]: 0.86
mRNA expression level, #6 NO [2]: 0.08
#7 HY 6 hr (mRNA expression level) [2]: 2.06
#7 HY 18 hr (mRNA expression level) [2]: 1.32
#7 NO (mRNA expression level) [2]: 0.87
#8 HY 6 hr (mRNA expression level) [2]: 0.75
#8 HY 18 hr (mRNA expression level) [2]: 1.20
#8 NO (mRNA expression level) [2]: 0.03
#9 HY 6 hr (mRNA expression level) [2]: 0.05
#9 HY 18 hr (mRNA expression level) [2]: 0.04
#9 NO (mRNA expression level) [2]: 0.04
#10 HY 6 hr (mRNA expression level) [2]: 2.60
#10 HY 18 hr (mRNA expression level) [2]: 3.60
#10 NO (mRNA expression level) [2]: 3.09
#11 HY 6 hr (mRNA expression level) [2]: 0.70
#11 HY 18 hr (mRNA expression level) [2]: 0.74
#11 NO (mRNA expression level) [2]: 0.60
HIGHEST FOLD CHANGE IN HYPOXIA (hr hypoxia + cell type) ([2]; 18 hr monocyte): 37.9 (18 hr monocyte) fold

B2: p1D24 (nucleic acid, listed as Homo Sapiens)
DNA: TTCTATCAGAAATTGTATTTATTTACCAGCATTTATGGCAAATGGCCAGACCTGGGCAGGGTGGTAGCAATGATAGATTTTACAAATTAAGGCATTGTTCTTTATTTCAAANTTTTCATTTACCNATATTTTCCTTGGTCTTAGAAATATGAATANTTTAGAGCTGGCAATACTCACCATCAGGATATAATAAACGGAGGTTTCTTTNTCCGAAATCCATAAANTGTAGTANTACTCTNTTGTACTTTTAAAATTCCNATTTTTGCAGTNGGCTTCCTCTCAGTGATTTAGTTAGGNAGTTTTGGTACATTTTGGNGGGGTCATAAACATGTTCATAGGATAGGAGTACNGGGCATTTNTGGAAAAACCCG
modifications: EST array clone; misc_feature 112, 125, 156, 208, 224, 232, 239, 258, 270, 297, 316, 350,359: n = A,T,C or G
mRNA EXPRESSION (experimental condition) #1 [1, 3]: 0.58
mRNA EXPRESSION (experimental condition) #2 [1, 3]: 0.71
mRNA EXPRESSION (experimental condition) #3 [1, 3]: 1.00
mRNA EXPRESSION (experimental condition) #4 [1, 3]: 1.32
mRNA EXPRESSION (experimental condition) #5 [1, 3]: 1.56
mRNA EXPRESSION (experimental condition) #6 [1, 3]: 2.59
mRNA expression level, #1 HY 6 hr [2]: 0.71
mRNA expression level, #1 HY 18 hr [2]: 1.39
mRNA expression level, #1 NO [2]: 0.98
mRNA expression level, #2 HY 6 hr [2]: 1.98
mRNA expression level, #2 HY 18 hr [2]: 2.16
mRNA expression level, #2 NO [2]: 1.55
mRNA expression level, #3 HY 6 hr [2]: 1.47
mRNA expression level, #3 HY 18 hr [2]: 1.01
mRNA expression level, #3 NO [2]: 1.18
mRNA expression level, #4 HY 6 hr [2]: 0.49
mRNA expression level, #4 HY 18 hr [2]: 0.67
mRNA expression level, #4 NO [2]: 0.74
mRNA expression level, #5 HY 6 hr [2]: 1.94
mRNA expression level, #5 NO [2]: 1.53
mRNA expression level, #6 HY 6 hr [2]: 0.98
#6 HY 18 hr (mRNA expression level) [2]: 0.96
mRNA expression level, #6 NO [2]: 0.90
#7 HY 6 hr (mRNA expression level) [2]: 0.79
#7 HY 18 hr (mRNA expression level) [2]: 0.49
#7 NO (mRNA expression level) [2]: 0.71
#8 HY 6 hr (mRNA expression level) [2]: 0.90
#8 HY 18 hr (mRNA expression level) [2]: 0.93
#8 NO (mRNA expression level) [2]: 0.53
#9 HY 6 hr (mRNA expression level) [2]: 0.51
#9 HY 18 hr (mRNA expression level) [2]: 0.43
#9 NO (mRNA expression level) [2]: 0.81
#10 HY 6 hr (mRNA expression level) [2]: 10.9
#10 HY 18 hr (mRNA expression level) [2]: 11.79
#10 NO (mRNA expression level) [2]: 4.63
#11 HY 6 hr (mRNA expression level) [2]: 2.23
#11 HY 18 hr (mRNA expression level) [2]: 1.65
#11 NO (mRNA expression level) [2]: 1.85
HIGHEST FOLD CHANGE IN HYPOXIA (hr hypoxia + cell type) ([2]; 18 hr renal epithelial): 2.55 (18 hr renal epithelial) fold

B3: p1E1 (nucleic acid, listed as Homo Sapiens)
DNA: TTTTGGTCTGAGAATGATGGACATTTAGACACTGGCGCCAGGTTTGCGCTGGACCGGCGCACGCAGGGGTTGGGCGGACGAAAGACACACAGGTGGGCTACAGGTGTCACACGGCACCAGCCAGGGCCCGGGGTGGCTGGGGTGAGGATGGGTGTTTGGCCAGTGACCAGGAGTCAGGTCAAGTCCAGGTGGTCAGTGCCAGGGGTCCCAGGAGGGGAGGGCAGTGCATTAACCCTCCTGGTGTCCAGCGTCACCAGGCGGTCGTCACAGAAAGCAACCTCGGCCCGGGGCCG
modifications: EST array clone
mRNA EXPRESSION (experimental condition) #1 [1, 4]: 1.21
mRNA EXPRESSION (experimental condition) #2 [1, 4]: 1.64
mRNA EXPRESSION (experimental condition) #3 [1, 4]: 0.94
mRNA EXPRESSION (experimental condition) #4 [1, 4]: 1.35
mRNA EXPRESSION (experimental condition) #5 [1, 4]: 0.51
mRNA EXPRESSION (experimental condition) #6 [1, 4]: 0.63
mRNA expression level, #1 HY 6 hr [2]: 1.31
mRNA expression level, #1 HY 18 hr [2]: 2.14
mRNA expression level, #1 NO [2]: 2.91
mRNA expression level, #2 HY 6 hr [2]: 6.21
mRNA expression level, #2 HY 18 hr [2]: 2.25
mRNA expression level, #2 NO [2]: 3.07
mRNA expression level, #3 HY 6 hr [2]: 2.11
mRNA expression level, #3 HY 18 hr [2]: 1.28
mRNA expression level, #3 NO [2]: 1.08
mRNA expression level, #4 HY 6 hr [2]: 1.01
mRNA expression level, #4 HY 18 hr [2]: 1.21
mRNA expression level, #4 NO [2]: 1.02
mRNA expression level, #5 HY 6 hr [2]: 0.80
mRNA expression level, #5 NO [2]: 0.56
mRNA expression level, #6 HY 6 hr [2]: 1.16
#6 HY 18 hr (mRNA expression level) [2]: 1.25
mRNA expression level, #6 NO [2]: 0.64
#7 HY 6 hr (mRNA expression level) [2]: 0.42
#7 HY 18 hr (mRNA expression level) [2]: 0.29
#7 NO (mRNA expression level) [2]: 0.29
#8 HY 6 hr (mRNA expression level) [2]: 0.47
#8 HY 18 hr (mRNA expression level) [2]: 0.91
#8 NO (mRNA expression level) [2]: 0.28
#9 HY 6 hr (mRNA expression level) [2]: 1.24
#9 HY 18 hr (mRNA expression level) [2]: 0.88
#9 NO (mRNA expression level) [2]: 1.03
#10 HY 6 hr (mRNA expression level) [2]: 0.61
#10 HY 18 hr (mRNA expression level) [2]: 0.60
#10 NO (mRNA expression level) [2]: 0.32
#11 HY 6 hr (mRNA expression level) [2]: 4.39
#11 HY 18 hr (mRNA expression level) [2]: 2.33
#11 NO (mRNA expression level) [2]: 3.03
HIGHEST FOLD CHANGE IN HYPOXIA (hr hypoxia + cell type) ([2]; 6 hr cardiomyocyte): 3.24 (6 hr cardiomyocyte) fold
